The values that follow are results of earlier work, collected in PMC11612555, “Impact of camel milk lactoferrin peptides against breast cancer cells: in silico and in vitro study” (Frontiers in Pharmacology, 2024).

One data set relates to MDAmb231 cells. Also noted: method as in Rascón-Cruz et al., 2021b. The note with it: against MDAmb231; ref Rascón-Cruz et al., 2021b.
The next data set has as its system HeLa cells. Also noted: method as in Rascón-Cruz et al., 2021b. The note with it: against HeLa; ref Rascón-Cruz et al., 2021b.
Another data set concerns MDA-MB-231. Also on record: method as in Zhang et al., 2014. The settings on record: ref Zhang et al., 2014.
A further data set deals with T-47D. Also on record: method as in Zhang et al., 2014. The settings on record: ref Zhang et al., 2014.
The subject of the next data set is MCF-7. Also on record: method as in Zhang et al., 2014. The settings on record: ref Zhang et al., 2014.
The test system of the next data set is MCF-10-2A. Also noted: method as in Zhang et al., 2014. The note with it: normal breast cell line MCF-10-2A; ref Zhang et al., 2014.
The subject of a further data set is Hs578T. Also noted: method as in Zhang et al., 2014. The note with it: ref Zhang et al., 2014.

B1: lactoferrin (protein, UniProt P02788 20-710, looked up)
Lactotransferrin: GRRRSVQWCAVSQPEATKCFQWQRNMRKVRGPPVSCIKRDSPIQCIQAIAENRADAVTLDGGFIYEAGLAPYKLRPVAAEVYGTERQPRTHYYAVAVVKKGGSFQLNELQGLKSCHTGLRRTAGWNVPIGTLRPFLNWTGPPEPIEAAVARFFSASCVPGADKGQFPNLCRLCAGTGENKCAFSSQEPYFSYSGAFKCLRDGAGDVAFIRESTVFEDLSDEAERDEYELLCPDNTRKPVDKFKDCHLARVPSHAVVARSVNGKEDAIWNLLRQAQEKFGKDKSPKFQLFGSPSGQKDLLFKDSAIGFSRVPPRIDSGLYLGSGYFTAIQNLRKSEEEVAARRARVVWCAVGEQELRKCNQWSGLSEGSVTCSSASTTEDCIALVLKGEADAMSLDGGYVYTAGKCGLVPVLAENYKSQQSSDPDPNCVDRPVEGYLAVAVVRRSDTSLTWNSVKGKKSCHTAVDRTAGWNIPMGLLFNQTGSCKFDEYFSQSCAPGSDPRSNLCALCIGDEQGENKCVPNSNERYYGYTGAFRCLAENAGDVAFVKDVTVLQNTDGNNNEAWAKDLKLADFALLCLDGKRKPVTEARSCHLAMAPNHAVVSRMDKVERLKQVLLHQQAKFGRNGSDCPDKFCLFQSETKNLLFNDNTECLARLHGKTTYEKYLGPQYVAGITNLKKCSTSPLLEACEFLRK
In the case of B1, the values for the selective index in the data set on MDAmb231 cells and in the data set on HeLa cells were 11.68 and 9.59, respectively.

B2: bovine lactoferrin (protein, UniProt P24627 20-708, looked up)
Lactotransferrin: APRKNVRWCTISQPEWFKCRRWQWRMKKLGAPSITCVRRAFALECIRAIAEKKADAVTLDGGMVFEAGRDPYKLRPVAAEIYGTKESPQTHYYAVAVVKKGSNFQLDQLQGRKSCHTGLGRSAGWIIPMGILRPYLSWTESLEPLQGAVAKFFSASCVPCIDRQAYPNLCQLCKGEGENQCACSSREPYFGYSGAFKCLQDGAGDVAFVKETTVFENLPEKADRDQYELLCLNNSRAPVDAFKECHLAQVPSHAVVARSVDGKEDLIWKLLSKAQEKFGKNKSRSFQLFGSPPGQRDLLFKDSALGFLRIPSKVDSALYLGSRYLTTLKNLRETAEEVKARYTRVVWCAVGPEEQKKCQQWSQQSGQNVTCATASTTDDCIVLVLKGEADALNLDGGYIYTAGKCGLVPVLAENRKSSKHSSLDCVLRPTEGYLAVAVVKKANEGLTWNSLKDKKSCHTAVDRTAGWNIPMGLIVNQTGSCAFDEFFSQSCAPGADPKSRLCALCAGDDQGLDKCVPNSKEKYYGYTGAFRCLAEDVGDVAFVKNDTVWENTNGESTADWAKNLNREDFRLLCLDGTRKPVTEAQSCHLAVAPNHAVVSRSDRAAHVKQVLLHQQALFGKNGKNCPDKFCLFKSETKNLLFNDNTECLAKLGGRPTYEEYLGTEYVTAIANLKKCSTSPLLEACAFLTR
notes: lactoferrin from bovine milk
Consider B2, for which the proliferation entry is “inhibited” in the data set with MDA-MB-231; “inhibited” with T-47D; “inhibited” in the data set with MCF-7; “not” in the data set with MCF-10-2A; “inhibited” with Hs578T.
